Assay results: the supplement of paper PMC10567573

B1: VTI1B (parent)
chain: ANETLAEMEEELRYAPLSFRNPMM
B2: FANCE (parent)
chain: AQVLMLGQILELPWKEETFLVLQS

Variants of: B1
Test: protein stability index of a GFP-peptide fusion (GPS, HEK-293T) (PSI 1-6); higher = more stable
Settings: c terminus: a fixed tail appended
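Further: lentivirally expressed fusions sorted by FACS into six bins by GFP to DsRed ratio, PSI derived from sequencing read proportions per bin multiplied by bin number.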

Variant	protein stability index
KNETLAEMEEELRYAPLSFRNPMM [A1K]	2.04
HNETLAEMEEELRYAPLSFRNPMM [A1H]	2.16
CNETLAEMEEELRYAPLSFRNPMM [A1C]	2.39
ENETLAEMEEELRYAPLSFRNPMM [A1E]	2.72
INETLAEMEEELRYAPLSFRNPMM [A1I]	1.91
SNETLAEMEEELRYAPLSFRNPMM [A1S]	2.49
QNETLAEMEEELRYAPLSFRNPMM [A1Q]	1.92
PNETLAEMEEELRYAPLSFRNPMM [A1P]	2.37
NNETLAEMEEELRYAPLSFRNPMM [A1N]	2.27
RNETLAEMEEELRYAPLSFRNPMM [A1R]	1.46
FNETLAEMEEELRYAPLSFRNPMM [A1F]	1.81
DNETLAEMEEELRYAPLSFRNPMM [A1D]	2.69
MNETLAEMEEELRYAPLSFRNPMM [A1M]	2.65
LNETLAEMEEELRYAPLSFRNPMM [A1L]	2.14
GNETLAEMEEELRYAPLSFRNPMM [A1G]	3.02

Variants of: B2
Test: as above
Settings: c terminus: a fixed tail appended

Variant	protein stability index
AQVLMLGQILELPWKEETHLVLQS [F19H]	3.46
AQVLMLGQILELPWKEETSLVLQS [F19S]	1.75
AQVLMLGQILELPWKEETQLVLQS [F19Q]	1.51
AQVLMLGQILELPWKEETPLVLQS [F19P]	1.55
AQVLMLGQILELPWKENTFLVLQS [E17N]	4.33
AQVLMLGQILELPWKEVTFLVLQS [E17V]	4.49
AQVLMLGQILELPWKEATFLVLQS [E17A]	2.43
AQVLMLGQILERPWKEETFLVLQS [L12R]	3.1
AQVLMLGQILEEPWKEETFLVLQS [L12E]	2.39
AQVLMLGQILEPPWKEETFLVLQS [L12P]	4.52
AQVLMLGQILEKPWKEETFLVLQS [L12K]	2.57
AQVLMLGQILENPWKEETFLVLQS [L12N]	1.94
AQVLMLGQILEIPWKEETFLVLQS [L12I]	2.49
AQVLMLGQILELPWKEEDFLVLQS [T18D]	1.84
AQVLMLGQILELPWKEEHFLVLQS [T18H]	3.02
AQVLMRGQILELPWKEETFLVLQS [L6R]	1.13
AQVLMGGQILELPWKEETFLVLQS [L6G]	2.17
AQVLMLGQILELPWKEETFLVKQS [L22K]	2.14
AQVLMLGQILELPWKEETFLVEQS [L22E]	2
AQVLMLGQILELPWKEETFLVNQS [L22N]	1.47
AQVLMLGQILELPWKEETFLVMQS [L22M]	2.5
AQVLMLGQILELPWKEETFLVWQS [L22W]	2.86
AQVLMLGQILELPWKEETFLVFQS [L22F]	2.29
AQVLMLGQILELPWKEETFLVHQS [L22H]	2.08
AQVLMLGQILELPWQEETFLVLQS [K15Q]	1.47
AQVLMLGQILELPWKEETFLVLCS [Q23C]	4.36
AQVLMLGQILELPWKEETFLVLKS [Q23K]	3.22

Variant	protein stability index
AQVQMLGQILELPWKEETFLVLQS [L4Q]	2.4
AQVWMLGQILELPWKEETFLVLQS [L4W]	2.28
AQVRMLGQILELPWKEETFLVLQS [L4R]	2.68
AQHLMLGQILELPWKEETFLVLQS [V3H]	2.45
AQNLMLGQILELPWKEETFLVLQS [V3N]	1.97
AQILMLGQILELPWKEETFLVLQS [V3I]	2.75
AQALMLGQILELPWKEETFLVLQS [V3A]	3.44
AQELMLGQILELPWKEETFLVLQS [V3E]	1.82
AQLLMLGQILELPWKEETFLVLQS [V3L]	3.37
AQVLMLGQNLELPWKEETFLVLQS [I9N]	1.7
AQVLMLGQLLELPWKEETFLVLQS [I9L]	3.3
AQVLMLGQGLELPWKEETFLVLQS [I9G]	1.73
AQVLMLGQDLELPWKEETFLVLQS [I9D]	2.85
AQVLMLGQSLELPWKEETFLVLQS [I9S]	2.09
AQVLGLGQILELPWKEETFLVLQS [M5G]	1.05
AQVLYLGQILELPWKEETFLVLQS [M5Y]	2.58
AQVLMLGQILELPWKEETFLVLQQ [S24Q]	1.69
AQVLMLGQILELPWKEETFLVLQY [S24Y]	2.4
AQVLMLGQILELPWKEETFLVLQC [S24C]	2.6
AQVLMLGQILELPKKEETFLVLQS [W14K]	1.96
AQVLMLGQILELPEKEETFLVLQS [W14E]	2.01
AQVLMLGQILELPPKEETFLVLQS [W14P]	1.83
AQVLMLGQILELPLKEETFLVLQS [W14L]	2.21
AQVLMLGQILELPWKAETFLVLQS [E16A]	3.98
AQVLMLGQILELPWKMETFLVLQS [E16M]	2.5
AQVLMLGQILELPWKQETFLVLQS [E16Q]	3.56
AQVLMLGRILELPWKEETFLVLQS [Q8R]	2.63

Variant	protein stability index
AQVLMLGLILELPWKEETFLVLQS [Q8L]	3.68
AQVLMLGTILELPWKEETFLVLQS [Q8T]	2.34
AQVLMLGIILELPWKEETFLVLQS [Q8I]	4.26
AQVLMLGQILMLPWKEETFLVLQS [E11M]	5.04
AQVLMLGQILRLPWKEETFLVLQS [E11R]	2.01
AQVLMLGQILVLPWKEETFLVLQS [E11V]	3.41
AQVLMLGQIGELPWKEETFLVLQS [L10G]	2.19
AQVLMLGQIRELPWKEETFLVLQS [L10R]	3.13
AQVLMLGQIMELPWKEETFLVLQS [L10M]	2.01
AQVLMLGQINELPWKEETFLVLQS [L10N]	1.88
AQVLMLVQILELPWKEETFLVLQS [G7V]	2.8
AQVLMLSQILELPWKEETFLVLQS [G7S]	2.32
DQVLMLGQILELPWKEETFLVLQS [A1D]	1.77
EQVLMLGQILELPWKEETFLVLQS [A1E]	2.43
QQVLMLGQILELPWKEETFLVLQS [A1Q]	2.4
AIVLMLGQILELPWKEETFLVLQS [Q2I]	3.13
AQVLMLGQILELPWKEETFLGLQS [V21G]	3.02
AQVLMLGQILELPWKEETFLDLQS [V21D]	2.08
AQVLMLGQILELPWKEETFLYLQS [V21Y]	3.3
AQVLMLGQILELPWKEETFLPLQS [V21P]	2.17
AQVLMLGQILELKWKEETFLVLQS [P13K]	2.57
AQVLMLGQILELPWKEETFGVLQS [L20G]	1.81
AQVLMLGQILELPWKEETFTVLQS [L20T]	1.76
AQVLMLGQILELPWKEETFKVLQS [L20K]	1.91
AQVLMLGQILELPWKEETFQVLQS [L20Q]	2.98
